B1: OR4K15 (parent)
chain: GUUAACGGUCAUAGGCCAUGGAAACUAGGAGCACCAUUUCGCUGCCAGUGAAGAAAUGAACAAAGAAAAUCUGGGCCAGGCAGGCAUCAAAAGAAAUAGUCUUGCGCUCAACCAGAAAGUCUGUAAUCAUUUUAAGGGUA

Variants of: B1
Test: self-cleavage, relative activity (ratio to wild type); higher = more cleavage; in vitro, sequencing; the parent is a self-cleaving ribozyme

Compared with GUUAACGGUCAUAGGCCAUGGAGACUAGGAGCACCAUUUCGCUGCCAGUGAAGAAAUGAACAAAGAAAAUCUGGGCCAGGCAGGCAUCAAAAGAAAUGGUCUUGCGCUCAACCAGAAAGUCUGUAAUCAUUUUAAGGGUA, GUUAACGGUCAUAGGCCAUGGAGACUAGGAGCACCAUUUCGCUGCCAGUGAAGAAAUGAACAAAGAAAAUCUGGGCCAGGCAGGCAUCAAAAGAAAUAGUCUUACGCUCAACCAGAAAGUCUGUAAUCAUUUUAAGGGUA is lower in self-cleavage: 0.23 for the first, 0.03 for the second.

Compared with GUUAACGGUCAUAGGCCAUGGAGACUAGGAGCACCAUUUCGCUGCCAGUGAAGAAAUGAACAAAGAAAAUCUGGGCCAGGCAGGCAUCAAAAGUAAUAGUCUUGCGCUCAACCAGAAAGUCUGUAAUCAUUUUAAGGGUA, GUUAACGGUCAUAGGCCAUGGAGACUAGGAGCACCAUUUCGCUGCCAGUGAAGAAAUGAACAAAGAAAAUCUGGGCCAGGCAAGCAUCAAAAGAAAUAGUCUUGCGCUCAACCAGAAAGUCUGUAAUCAUUUUAAGGGUA is lower in self-cleavage: 1.54 for the first, 1.24 for the second.

First: GUUAACGGUCAUAGGCCAUGGAGACUAGGAGCACCAUUUCGCUUCCAGUGAAGAAAUGAACAAAGAAAAUCUGGGCCAGGCAGGCAUCAAAAGAAAUAGUCUUGCGCUCAACCAGAAAGUCUGUAAUCAUUUUAAGGGUA
Second: GUUAACGGUCAUAGGCCAUGGAGACUAGGAGCACCAUUUCACUGCCAGUGAAGAAAUGAACAAAGAAAAUCUGGGCCAGGCAGGCAUCAAAAGAAAUAGUCUUGCGCUCAACCAGAAAGUCUGUAAUCAUUUUAAGGGUA
The self-cleavage of the first is lower: 1.21 for the first, 1.29 for the second.

Going from GUUAACGGUCAUAGGCCAUGGAGACUAGGAGCACCAUUUCGCUGUCAGUGAAGAAAUGAACAAAGAAAAUCUGGGCCAGGCAGGCAUCAAAAGAAAUAGUCUUGCGCUCAACCAGAAAGUCUGUAAUCAUUUUAAGGGUA to GUUAACGGUCAUAGGCCAUGGAGACUAGGAGCACCAUUUCGCUGCCAGUGAAGAAAUGAACAAAGAAAAUCUGGGCCAGGCAGGCAUCAAAAGAAAUAGUCUUGCGCUCCACCAGAAAGUCUGUAAUCAUUUUAAGGGUA, the self-cleavage falls from 1.23 to 0.09.

Going from GUUAACGGUCAUAGGCCAUGGAGACUAGGAGCACCAUUUCGCUGCCAGUGAAGAAAUGAACAAAGAAAAUCUGGGCCAGGCAGGCAUCAAAAGAAAUAGUCUUGCGCUCAACCAGAACGUCUGUAAUCAUUUUAAGGGUA to GUUAACGGUCAUAGGCCAUGGAGACUAGGAGCACCAUUUCGCUGCCAGUGAAGAAAUGAACAAAGAAAAUCUGGGCCAGGCAGGCCUCAAAAGAAAUAGUCUUGCGCUCAACCAGAAAGUCUGUAAUCAUUUUAAGGGUA, the self-cleavage rises from 0.5 to 1.06.

Compared with GUUAACGGUCAUAGGCCAUGGAGACUAGGAGCACCAUUUCGCUGCCAGUGAAGAAAUGAACAAAGAAAAUCUGGGCCUGGCAGGCAUCAAAAGAAAUAGUCUUGCGCUCAACCAGAAAGUCUGUAAUCAUUUUAAGGGUA, GUUAACGGUCAUAGGCCAUGGAGACUAGGAGCACCAUUUCGCUGCCAGUGAAGAAAUGAACAAAGAAAAUCUGGGCCAGGCCGGCAUCAAAAGAAAUAGUCUUGCGCUCAACCAGAAAGUCUGUAAUCAUUUUAAGGGUA is lower in self-cleavage: 0.36 for the first, 0.09 for the second.

Going from GUUAACGGUCAUAGGCCAUGGAGACUAGGAGCACCAUUUCGCUGCCAGUGAAGAAAUGAACAAAGAAAAUCUGGGCCAGGCUGGCAUCAAAAGAAAUAGUCUUGCGCUCAACCAGAAAGUCUGUAAUCAUUUUAAGGGUA to GUUAACGGUCAUAGGCCAUGGAGACUAGGAGCACCAUUUCGCUGCCAGUGAAGAAAUGAACAAAGAAAAUUUGGGCCAGGCAGGCAUCAAAAGAAAUAGUCUUGCGCUCAACCAGAAAGUCUGUAAUCAUUUUAAGGGUA, the self-cleavage rises from 0.2 to 0.31.

Compared with GUUAACGGUCAUAGGCCAUGGAGACUAGGAGCACCAUUUCGCUGCCAGUGAAGAAAUGAACAAAGAAAAUCUGGGCCAGGCAGACAUCAAAAGAAAUAGUCUUGCGCUCAACCAGAAAGUCUGUAAUCAUUUUAAGGGUA, GUUAACGGUCAUAGGCCAUGGAGACUAGGAGCACCAUUUCGCUGCCAGUGAAGAAAUGAACAAAGAAAAUCUGGGCCAGGCAGGCAUCAAACGAAAUAGUCUUGCGCUCAACCAGAAAGUCUGUAAUCAUUUUAAGGGUA is lower in self-cleavage: 1.58 for the first, 1.29 for the second.

Compared with GUUAACGGUCAUAGGCCAUGGAGACUAGGAGCACCAUUUCGCUGCCAGUGAAGAAAUGAACAAAGAAAAUCUGGGCCAGGCAGGCAUCAAAAGAAAUAGUCUUGCGCUCAACCAGAAAGUCUGUAAUCAUUUUAAGGGUG, GUUAACGGUCAUAGGCCAUGGAGACUAGGAGCACCAUUUCGCUGCCAGUGAAGAAAUGAACAAAGAAAAUCUGGGCCAGGCAGGCAUCAAAAGAAAUAGUCUUGCGCUCAACCAGAAAGUCUGUAAUCAUUUUAAGGGUC is lower in self-cleavage: 1.61 for the first, 1.55 for the second.

Going from GUUAACGGUCAUAGGCCAUGGAGACUAGGAGCACCAUUUCGCUGCCAGUGAAGAAAUGAACAAAGAAAAUCUGGGCCAGGCAGGCAUCAAAAGAAAUAGUCUUGCGCUCAACCAGAAAGUCUGUAAUCAUUUUAAGGGUU to GUUAACGGUCAUAGGCCAUGGAGACUAGGAGCACCAUUUCGCUGCCAGUGAAGAAAUGAACAAAGAAAAUCUGGGCCAGGCAGGCAUCAAAAGAGAUAGUCUUGCGCUCAACCAGAAAGUCUGUAAUCAUUUUAAGGGUA, the self-cleavage rises from 1.15 to 1.59.

Compared with GUUAACGGUCAUAGGCCAUGGAGACUAAGAGCACCAUUUCGCUGCCAGUGAAGAAAUGAACAAAGAAAAUCUGGGCCAGGCAGGCAUCAAAAGAAAUAGUCUUGCGCUCAACCAGAAAGUCUGUAAUCAUUUUAAGGGUA, GUUAACGGUCAUAGGCCAUGGAGACUAGGAGCACCAUUUUGCUGCCAGUGAAGAAAUGAACAAAGAAAAUCUGGGCCAGGCAGGCAUCAAAAGAAAUAGUCUUGCGCUCAACCAGAAAGUCUGUAAUCAUUUUAAGGGUA is higher in self-cleavage: 0.93 for the first, 1.37 for the second.

Compared with GUUAACGGUCAUAGGCCAUGGAGACCAGGAGCACCAUUUCGCUGCCAGUGAAGAAAUGAACAAAGAAAAUCUGGGCCAGGCAGGCAUCAAAAGAAAUAGUCUUGCGCUCAACCAGAAAGUCUGUAAUCAUUUUAAGGGUA, GUUAACGGUCAUAGGCCAUGGAGACAAGGAGCACCAUUUCGCUGCCAGUGAAGAAAUGAACAAAGAAAAUCUGGGCCAGGCAGGCAUCAAAAGAAAUAGUCUUGCGCUCAACCAGAAAGUCUGUAAUCAUUUUAAGGGUA is lower in self-cleavage: 1.42 for the first, 1.22 for the second.

Compared with GUUAACGGUCAUAGGCCAUGGAGACUAGGAGCACCAUUUCGCUGCCAGUGAAGAAAUGAACAAAGAAAAUCUGGGCCAGGCAGGCAUCAAAAGAAAUAGUCUUGCGCUCAACCAGAUAGUCUGUAAUCAUUUUAAGGGUA, GUUAACGGUCAUAGGCCAUGGAGACUAGGAGCACCAUUUCGCUGCCAGUGAAGAAAUGAACAAAGAAAAUCUGGGCCAGGCAGGCAUCAAAAGAAAUAGUCUUGCGCUCAACCAGACAGUCUGUAAUCAUUUUAAGGGUA is lower in self-cleavage: 0.55 for the first, 0.36 for the second.

Going from GUUAACGGUCAUAGGCCAUGGAGACUAGGAGCACCAUUUCGCUGCCAGUGAAGAAAUGAACAAAGAAAAUCUGGGCCAGGCAGGCAUCCAAAGAAAUAGUCUUGCGCUCAACCAGAAAGUCUGUAAUCAUUUUAAGGGUA to GUUAACGGUCAUAGGCCAUGGAGACUAGGAGCACCAUUUCGCUGCCAGUGAAGAAAUGAACAAAGAAAAUCUGGGCCAGGCAGGCAUCUAAAGAAAUAGUCUUGCGCUCAACCAGAAAGUCUGUAAUCAUUUUAAGGGUA, the self-cleavage falls from 1.98 to 0.72.

Compared with GUUAACGGUCAUAGGCCAUGGAGACUAGGAGCACCAUUUCGCUGCCAGUGAAGAAAUGAACAAAGAAAAUCUGGCCCAGGCAGGCAUCAAAAGAAAUAGUCUUGCGCUCAACCAGAAAGUCUGUAAUCAUUUUAAGGGUA, GUUAACGGUCAUAGGCCAUGGAGACUAGGAGCACCAUUUCGCUGCCAGUGAAGAAAUGAACAAAGAAAAUCUGGGCCAGGCAGGCAUCAAAAGAAAUAGUCUUGCGCUCAACCAGAAAGUUUGUAAUCAUUUUAAGGGUA is higher in self-cleavage: 0.16 for the first, 2.12 for the second.

First: GUUAACGGUCAUAGGCCAUGGAGACUAGGAGCACCAUUUCGCUGCCAGUGAAGAAAUGAACAAAGAAAAUCUGGGCCAGGCAGGCAUCAUAAGAAAUAGUCUUGCGCUCAACCAGAAAGUCUGUAAUCAUUUUAAGGGUA
Second: GUUAACGGUCAUAGGCCAUGGAGACUAGGAGCACCAUUUCGCUGCCAGUGAAGAAAUGAACAAAGAAAAUCUGGGCCAGGCAGGCAUCAAUAGAAAUAGUCUUGCGCUCAACCAGAAAGUCUGUAAUCAUUUUAAGGGUA
The self-cleavage of the first is higher: 1.85 for the first, 1.57 for the second.

First: GUUAACGGUCAUAGGCCAUGGAGACUAGGAGCACCAUUUCGCUGCCAGUGAAGAAAUGAACAAAGAAAAUCUGGGCUAGGCAGGCAUCAAAAGAAAUAGUCUUGCGCUCAACCAGAAAGUCUGUAAUCAUUUUAAGGGUA
Second: GUUAACGGUCAUAGGCCAUGGAGACUAGGAGCACCAUUUCGCUGCCAGUGAAGAAAUGAACAAAGAAAAUCUGGGCCAGGCAGGCAUCAAAAGAAAUAGUCUUGCGCUCAACCAGUAAGUCUGUAAUCAUUUUAAGGGUA
The self-cleavage of the first is higher: 2.07 for the first, 0.3 for the second.

First: GUUAACGGUCAUAGGCCAUGGAGACUAGGAGCACCAAUUCGCUGCCAGUGAAGAAAUGAACAAAGAAAAUCUGGGCCAGGCAGGCAUCAAAAGAAAUAGUCUUGCGCUCAACCAGAAAGUCUGUAAUCAUUUUAAGGGUA
Second: GUUAACGGUCAUAGGCCAUGGAGACUAGGAGCACCAUUUCGCUGCCAGUGAAGAAAUGAACAAAGAAAAUCUGGGCCAGGCAGGCAUCAAAAGAAAUAGUCUUGGGCUCAACCAGAAAGUCUGUAAUCAUUUUAAGGGUA
The self-cleavage of the first is higher: 1.24 for the first, 0.07 for the second.

Compared with GUUAACGGUCAUAGGCCAUGGAGACUAGGAGCACCAUUUCGCUGCCAGUGAAGAAAUGAACAAAGAAAAUCUGGGCCAGACAGGCAUCAAAAGAAAUAGUCUUGCGCUCAACCAGAAAGUCUGUAAUCAUUUUAAGGGUA, GUUAACGGUCAUAGGCCAUGGAGACUAGGAGCACCAUUUCGCUGCCAGUGAAGAAAUGAACAAAGAAAAUCUGGGCCAGGCAGGCAUCAAAAGAAGUAGUCUUGCGCUCAACCAGAAAGUCUGUAAUCAUUUUAAGGGUA is higher in self-cleavage: 0.31 for the first, 0.92 for the second.

First: GUUAACGGUCAUAGGCCAUGGAGACUAGGAGCACCAUUUCGCUGCCAGUGAAGAAAUGAACAAAGAAAAUCUGGGCCAGGCAGGCAUCAAAAGAAAUAGUCUUGCGCUCAACCAGAAAGUCUGUAAUCAUUUUAAGAGUA
Second: GUUAACGGUCAUAGGCCAUGGAGACUAGGAGCACCAUUUCGGUGCCAGUGAAGAAAUGAACAAAGAAAAUCUGGGCCAGGCAGGCAUCAAAAGAAAUAGUCUUGCGCUCAACCAGAAAGUCUGUAAUCAUUUUAAGGGUA
The self-cleavage of the first is lower: 1.04 for the first, 1.11 for the second.

GUUAACGGUCAUAGGCCAUGGAGACUAGGAGCACCAUUUCGCUGCCAGUGAACAAAUGAACAAAGAAAAUCUGGGCCAGGCAGGCAUCAAAAGAAAUAGUCUUGCGCUCAACCAGAAAGUCUGUAAUCAUUUUAAGGGUA showed a self-cleavage of 1.82.
